Data published in patent US20250136710A1.
pKd: −log10 of the molar value.

Experiments:
[1] = biological target: human PVRIG expressed on cells (human) (UniProt Q6DKI7); assay: FACS
[2] = biological target: human PVRIG expressed on cells (human) (UniProt Q6DKI7); assay: FACS; Jurkat cells
[3] = biological target: mouse PVR protein, recombinant (mouse); assay: SPR / ELISA with recombinant proteins

human PVRIG expressed on cells (human), sequence (Q6DKI7 41-326): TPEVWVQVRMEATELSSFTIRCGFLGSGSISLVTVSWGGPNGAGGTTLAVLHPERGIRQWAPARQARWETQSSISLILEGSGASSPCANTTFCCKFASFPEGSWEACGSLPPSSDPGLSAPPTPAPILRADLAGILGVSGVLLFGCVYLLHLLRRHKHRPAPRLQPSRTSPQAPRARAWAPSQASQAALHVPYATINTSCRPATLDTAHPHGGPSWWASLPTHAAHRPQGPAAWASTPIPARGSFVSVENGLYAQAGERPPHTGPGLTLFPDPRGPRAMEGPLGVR

Row | Substance | pKd [1] | pKd [2] | fold lower affinity than the interaction with mPVRL2 [3] [fold]
1 | PVRIG (COM701) | 9.53 | 9.82 | –
2 | mouse PVRIG Fc (Fc fusion) | – | – | 10
